Assay results: patent US20230125690A1 (KYUNGPOOK NATIONAL UNIVERSITY INDUSTRY ACADEMIC COOPERATION …, published 2023)
Blank lines part the entries; values can stand above or below the binder they belong to. *1 amine or outer side, *2 acyl side, *3 side chain or, on linkers, in order; H or OH if unused. Where no end group is shown, it is not given here. [ ]: non-standard residue; d: D form. Sac = acetylated serine, O-acetyl-L-serine, CC(=O)OC[C@H](N[*:1])C(=O)[*:2]

Experiments:
[1] = target: T1, acetylated peptide GCPFTSacFSVPD (SEQ ID NO: 4) including acetylated S565 residue of COX2 (human); assay: ELISA, plate coated with antibody, peptide captured, biotinylated COX2 antibody detection
T1 peptide: GCPFT[Sac]FSVPD

[2] = target: T2, human COX2 (cyclooxygenase 2) protein with acetylated S565 residue (human, UniProt P35354 18-604, acetylated serine at S565); assay: sandwich ELISA on human PBMC lysates, plate coated with 44C7C8
T2 construct: Endogenous protein in RIPA lysates of human microglia and human PBMCs, and in human brain tissue sections; also called S565 acetylated COX2 protein; acetylated COX2 protein
T2 sequence: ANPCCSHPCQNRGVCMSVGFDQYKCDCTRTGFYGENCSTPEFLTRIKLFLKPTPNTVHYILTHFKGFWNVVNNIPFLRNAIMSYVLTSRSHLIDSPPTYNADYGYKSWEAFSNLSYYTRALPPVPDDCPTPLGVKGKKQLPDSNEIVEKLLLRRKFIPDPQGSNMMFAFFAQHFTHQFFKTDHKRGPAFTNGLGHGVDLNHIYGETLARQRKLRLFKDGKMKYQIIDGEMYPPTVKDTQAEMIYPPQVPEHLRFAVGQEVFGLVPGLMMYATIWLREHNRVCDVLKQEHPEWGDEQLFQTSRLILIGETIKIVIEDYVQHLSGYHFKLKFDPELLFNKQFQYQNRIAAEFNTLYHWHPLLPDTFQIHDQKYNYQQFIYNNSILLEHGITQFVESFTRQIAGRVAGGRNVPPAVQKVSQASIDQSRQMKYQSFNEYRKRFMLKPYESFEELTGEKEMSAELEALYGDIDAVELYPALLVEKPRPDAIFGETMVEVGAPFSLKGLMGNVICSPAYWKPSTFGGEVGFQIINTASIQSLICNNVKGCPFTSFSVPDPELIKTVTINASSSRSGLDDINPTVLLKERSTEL
Procedure: The sample preparation was performed according to the following procedure. After collecting mouse and human blood, the blood was transferred to a heparin tube and reacted for 30 minutes. The reacted blood was placed on the same amount of Histopaque (sigma, 10771) and centrifuged (400 g, 30 minutes). After centrifugation, a middle PBMC layer was separated and washed. After washing, the PBMCs were lysed by adding an RIPA solution (Cell signaling, 9806S), and then the cell lysate was centrifuged (13,000×g, 10 minutes) to obtain a supernatant, and then the amount of protein was quantified and ELISA assay was performed using 100 μg/ml of protein.
After the plate was washed with PBS/Tween, 300 μl/well of a blocking solution was applied at RT for 1 hour. 50 μl of a PBMC sample (100 μg/ml) was treated and incubated at RT for 2 hours. […] After the final washing, the detection was performed with TMB (3-3′,5,5′-tetramethylbenzidine) ([…] substrate for HRP) and the plate was read at 405 nm using an ELISA plate reader. A standard curve was obtained by step-diluting the peptide (500 μg/ml) of SEQ ID NO: 3 or SEQ ID NO: 4, and the amount of COX2 protein acetylated in S565 residue was calculated by substituting an optical density (O.D.) value obtained from the sample to the Standard curve.

[3] = target: T2, human COX2 (cyclooxygenase 2) protein …; assay: sandwich ELISA on human microglia lysates, plate coated with 9F7-2
[4] = target: T3, acetylated peptide PFTSacFSVPDPELI (SEQ ID NO: 3) including acetylated S565 residue of COX2 (human); assay: ELISA, 96-well plate coated with 9F7-2, peptide captured, biotinylated COX2 antibody detection
T3 peptide: PFT[Sac]FSVPDPELI

- binding result [1]: binds
- binding result [2]: binds
B1: monoclonal antibody 44C7C8 (antibody, V domains shown)
VH: DVQLQESGPGLVKPSQSLSLTCSVTGYSITSGYYWNWIRQFPGNKLEWMGYISYDGSNNYNPSLKNRISITRDTYKKQFFLKLNSVTTEDTATYYCARGADYYGNTYFYFDVWGAGTTVTVSS
VL: DIVMSQSPSSLAVSVEEKVNMSCKSSQSLLYSRNQKNYLAWYQQKPGQSPKLLIYWASTRESGVPDRFTGSGAGTDFTLTISSVKAEDLAVYYCQQYYTYPFTFGSGTKLEIK
notes: the isotype and constant regions are not; The methods call it 44C7F5 or 44C75F and the results call it 44C7C8; also called 44C7F5; 44C75F

- binding result [3]: binds
- binding result [4]: binds
B2: monoclonal antibody 9F7-2 (antibody, V domains shown)
VH: QVQLQQSGAELVRPGTSVKISCKASGYTFTDYLLGWVKQRPGHGLEWIGDIYPGGTYIKYNEKFKGKATLTADTSSSTAYMQLSSLTSEDSAVYFCARGRNDEKGDYWGQGTSVTVSS
VL: DVLMTQTPLSLPVSLGDQASISCRSSQSIVHRNGFTYLEWYLQKPGQSPKLLIYQVSNRFSGVPDRFSGSGSGTDFTLKISRVEAEDLGVYYCFQGSHVPPTFGGGTKLEIK
notes: Clones were screened for IgG expression; the isotype and constant regions are not
